Assay results as given in US20260250421A1 (BIOCYTOGEN PHARMACEUTICALS BEIJING, published 2026).

How the values were obtained:
Experiment in all cases: SPR Biacore 8K, Ab on Protein A chip
[1] = biological target: T1, His-tagged monkey TROP2 protein (cynomolgus monkey; Rhesus …, UniProt A0A5F8AGB8 27-274)
T1 construct: also called cTROP2-His; ACRO Biosystems Cat# TR2-R52H3
T1 sequence: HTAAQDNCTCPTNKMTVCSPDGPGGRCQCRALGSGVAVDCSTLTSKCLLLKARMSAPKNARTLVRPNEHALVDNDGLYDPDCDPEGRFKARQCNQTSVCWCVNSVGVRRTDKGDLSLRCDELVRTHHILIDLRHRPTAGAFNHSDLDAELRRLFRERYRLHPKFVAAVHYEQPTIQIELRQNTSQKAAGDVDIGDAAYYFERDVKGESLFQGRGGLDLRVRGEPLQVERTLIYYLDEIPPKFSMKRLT

[2] = biological target: T2, His-tagged human TROP2 protein (human, UniProt P09758 27-274)
T2 construct: Bought protein; also called hTROP2-His; ACRO Biosystems Cat# TR2-H5223; not shown: His tag
T2 sequence (looked up): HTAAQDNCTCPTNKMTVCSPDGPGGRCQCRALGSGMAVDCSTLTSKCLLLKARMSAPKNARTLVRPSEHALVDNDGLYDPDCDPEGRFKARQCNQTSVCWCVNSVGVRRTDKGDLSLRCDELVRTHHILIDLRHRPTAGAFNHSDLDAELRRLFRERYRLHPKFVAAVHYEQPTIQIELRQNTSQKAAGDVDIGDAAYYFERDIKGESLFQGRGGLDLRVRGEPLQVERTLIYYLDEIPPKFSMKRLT
Method: (§1) The affinity of the anti-PTK7/TROP2 bispecific antibodies to His-tagged human TROP2 protein (hTROP2-His, ACRO Biosystems Inc., Cat #: TR2-H5223), His-tagged […] monkey TROP2 protein (cTROP2-His, ACRO Biosystems Inc., Cat #: Cat: TR2-R52H3), His-tagged dog TROP2 protein (dTROP2-His, ACRO Biosystems Inc., Cat #: TR2-C52H4), hPTK7-His, cPTK7-His and dPTK7-His were measured by surface plasmon resonance (SPR) using Biacore™ (Biacore, INC, Piscataway N.J.) 8K biosensor equipped with pre-immobilized Protein A sensor chips.

[3] = biological target: T3, His-tagged dog PTK7 protein (dog, UniProt Q13308 31-703 (human entry))
T3 construct: also called dPTK7-His
T3 chain: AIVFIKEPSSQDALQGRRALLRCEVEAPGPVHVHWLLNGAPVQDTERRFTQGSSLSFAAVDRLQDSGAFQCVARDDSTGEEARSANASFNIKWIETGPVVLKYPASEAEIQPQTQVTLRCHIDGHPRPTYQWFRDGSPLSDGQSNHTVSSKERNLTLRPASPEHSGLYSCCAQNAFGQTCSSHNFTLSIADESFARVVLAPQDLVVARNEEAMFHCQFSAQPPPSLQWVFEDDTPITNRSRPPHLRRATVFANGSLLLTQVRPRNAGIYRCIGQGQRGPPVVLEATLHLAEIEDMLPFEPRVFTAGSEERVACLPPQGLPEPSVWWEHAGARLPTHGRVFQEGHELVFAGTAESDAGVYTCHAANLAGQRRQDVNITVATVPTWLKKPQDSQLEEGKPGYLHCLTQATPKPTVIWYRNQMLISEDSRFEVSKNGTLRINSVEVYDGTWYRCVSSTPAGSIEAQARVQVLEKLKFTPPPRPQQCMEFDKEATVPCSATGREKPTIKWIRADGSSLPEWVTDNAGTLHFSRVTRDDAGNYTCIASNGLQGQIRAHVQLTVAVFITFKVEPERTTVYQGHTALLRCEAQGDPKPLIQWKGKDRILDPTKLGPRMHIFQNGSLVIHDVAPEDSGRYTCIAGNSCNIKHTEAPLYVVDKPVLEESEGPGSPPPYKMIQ
Method: as §1

[4] = biological target: T4, His-tagged human PTK7 protein (human, UniProt Q13308 31-704)
T4 construct: Bought protein; also called hPTK7-His; not shown: His tag
T4 sequence: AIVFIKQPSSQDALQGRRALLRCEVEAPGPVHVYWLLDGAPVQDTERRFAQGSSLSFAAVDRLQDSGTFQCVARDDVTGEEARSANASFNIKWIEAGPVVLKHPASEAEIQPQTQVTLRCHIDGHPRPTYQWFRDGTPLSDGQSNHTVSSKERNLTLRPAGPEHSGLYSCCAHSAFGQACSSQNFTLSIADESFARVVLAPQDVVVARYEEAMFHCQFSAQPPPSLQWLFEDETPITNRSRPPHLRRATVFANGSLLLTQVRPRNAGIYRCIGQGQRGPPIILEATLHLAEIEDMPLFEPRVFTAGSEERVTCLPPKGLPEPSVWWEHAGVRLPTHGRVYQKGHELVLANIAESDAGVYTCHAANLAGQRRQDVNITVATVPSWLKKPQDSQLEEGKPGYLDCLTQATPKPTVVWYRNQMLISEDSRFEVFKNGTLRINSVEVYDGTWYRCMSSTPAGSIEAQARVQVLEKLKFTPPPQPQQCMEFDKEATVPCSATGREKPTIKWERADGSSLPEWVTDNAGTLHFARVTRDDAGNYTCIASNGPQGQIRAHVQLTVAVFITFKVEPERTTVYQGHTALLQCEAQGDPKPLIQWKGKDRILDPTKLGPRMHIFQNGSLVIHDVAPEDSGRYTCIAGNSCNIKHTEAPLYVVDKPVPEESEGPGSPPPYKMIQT
Method: as §1

[5] = biological target: T5, His-tagged cynomolgus monkey PTK7 protein (cynomolgus monkey, UniProt A0A2K5VNI5 39-712)
T5 construct: Bought protein; also called cPTK7-His; ACRO Biosystems Cat# PT7-C52H3; not shown: His tag
T5 sequence: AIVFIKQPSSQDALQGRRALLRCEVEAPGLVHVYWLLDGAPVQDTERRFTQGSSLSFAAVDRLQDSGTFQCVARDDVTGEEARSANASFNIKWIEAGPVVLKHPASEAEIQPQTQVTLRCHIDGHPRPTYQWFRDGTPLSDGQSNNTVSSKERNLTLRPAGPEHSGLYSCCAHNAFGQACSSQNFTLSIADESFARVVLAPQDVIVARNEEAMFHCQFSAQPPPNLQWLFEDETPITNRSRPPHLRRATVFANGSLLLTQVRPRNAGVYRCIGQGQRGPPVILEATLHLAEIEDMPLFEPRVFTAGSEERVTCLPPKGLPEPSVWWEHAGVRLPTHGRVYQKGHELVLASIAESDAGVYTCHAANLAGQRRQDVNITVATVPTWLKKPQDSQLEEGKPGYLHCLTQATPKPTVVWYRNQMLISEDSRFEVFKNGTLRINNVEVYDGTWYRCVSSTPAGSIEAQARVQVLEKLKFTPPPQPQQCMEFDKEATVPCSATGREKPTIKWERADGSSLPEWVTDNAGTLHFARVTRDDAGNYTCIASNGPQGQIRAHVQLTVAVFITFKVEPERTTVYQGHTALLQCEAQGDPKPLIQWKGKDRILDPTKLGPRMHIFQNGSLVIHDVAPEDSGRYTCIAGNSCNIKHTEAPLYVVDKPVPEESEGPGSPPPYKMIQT
Method: as §1

Row | Binder | Kd [1] [nM] | koff [1] [s⁻¹] | kon [1] [M⁻¹ s⁻¹] | Kd [2] [nM] | koff [2] [s⁻¹] | kon [2] [M⁻¹ s⁻¹] | Kd [3] [nM] | koff [3] [s⁻¹] | kon [3] [M⁻¹ s⁻¹] | Kd [4] [nM] | koff [4] [s⁻¹] | kon [4] [M⁻¹ s⁻¹] | Kd [5] [nM] | koff [5] [s⁻¹] | kon [5] [M⁻¹ s⁻¹]
1 | 3E6-18E9 (bispecific antibody, V domains shown, also called anti-PTK7/TROP2 bispecific antibody 3E6-18E9) VH 1: QVQLVESGAEVKKPGESLRISCRGSGYSFTSYWISWVRQMPGKGLEWMGRIDPSDSYTKYSPSFQGHVTISADKSISTAYLQWSSLKASDTAMYYCARRDGDYFDFDYWGQGTLVTVSS VH 2: QLQLQQSGPGLLKPSETLSLTCTVSGGSISSSYYFWGWIRQPPGKGLEWIGAIYYIGNTHYNPSLKSRVTISIDTSKNQFSLNLNSVTAADTAIYYCARYEDTWNWFDPWGQGTLVTVSS VL: not shown | 3.66 | 0.00119 | 325000 | 3.23 | 0.00116 | 360000 | 16.7 | 0.00164 | 98300 | 3.14 | 0.000389 | 124000 | 5.2 | 0.000623 | 120000
2 | 3C4-6F7 (bispecific antibody, human IgG1, kappa, Knobs-into-holes IgG1 with common light chain; also called anti-PTK7/TROP2 bispecific antibody 3C4-6F7) heavy 1: not shown heavy 2: EVQLVQSGPGLVKPSETLSLTCTVSGGSIDSGYYYWGWIRQPPGKGLEWIGSIYYIGTTYYIPSLKSRVTISVDTSKNRFSLKLTSVTAADTAVYYCARQPITVAGHDAFDIWGQGTMVTVSSASTKGPSVFPLAPSSKSTSGGTAALGCLVKDYFPEPVTVSWNSGALTSGVHTFPAVLQSSGLYSLSSVVTVPSSSLGTQTYICNVNHKPSNTKVDKKVEPKSCDKTHTCPPCPAPELLGGPSVFLFPPKPKDTLMISRTPEVTCVVVDVSHEDPEVKFNWYVDGVEVHNAKTKPREEQYNSTYRVVSVLTVLHQDWLNGKEYKCKVSNKALPAPIEKTISKAKGQPREPQVCTLPPSREEMTKNQVSLSCAVKGFYPSDIAVEWESNGQPENNYKTTPPVLDSDGSFFLVSKLTVDKSRWQQGNVFSCSVMHEALHNHYTQKSLSLSPGK light: not shown | 5.94 | 0.00179 | 301000 | 10.6 | 0.00419 | 394000 | 52.5 | 0.006 | 114000 | 13.2 | 0.00152 | 115000 | 17.4 | 0.00216 | 124000
3 | 3C4-18F12 (bispecific antibody, V domains shown, also called anti-PTK7/TROP2 bispecific antibody 3C4-18F12) VH 1: QVQLEQSRAEVKKPGESLRISCKGSGYSFTSYWISWVRQMPGKGLEWMGRIDPSDSYTNYNPSFQGHVTISADKSISTAYLQWSSLKASDTAMYYCARRDGSYFDFDYWGQGTLVTVSS VH 2: QLQLKESGPGLVKPSETLSLTCTVSGGSISYYYWSWIRQPPGMGLEWIGNIYYSGDTNYNPSLRSRVTISIDMSKNQFSLRLNSVTAADTAVYYCARYDMFKWNYEAFDVWGQGTMVTVSS VL: not shown | 12.1 | 0.00252 | 209000 | 11.2 | 0.0025 | 224000 | 36.2 | 0.00426 | 118000 | 11.5 | 0.00139 | 121000 | 14.8 | 0.00173 | 117000
4 | 3E6-18F12 (bispecific antibody, V domains shown, also called anti-PTK7/TROP2 bispecific antibody 3E6-18F12) VH 1: QVQLVESGAEVKKPGESLRISCRGSGYSFTSYWISWVRQMPGKGLEWMGRIDPSDSYTKYSPSFQGHVTISADKSISTAYLQWSSLKASDTAMYYCARRDGDYFDFDYWGQGTLVTVSS VH 2: QLQLKESGPGLVKPSETLSLTCTVSGGSISYYYWSWIRQPPGMGLEWIGNIYYSGDTNYNPSLRSRVTISIDMSKNQFSLRLNSVTAADTAVYYCARYDMFKWNYEAFDVWGQGTMVTVSS VL: not shown | 13.9 | 0.00231 | 166000 | 13.7 | 0.00244 | 178000 | 16.4 | 0.00172 | 105000 | 2.43 | 0.000329 | 135000 | 4.98 | 0.000649 | 130000
5 | 3E6-6F7 (bispecific antibody, V domains shown, also called anti-PTK7/TROP2 bispecific antibody 3E6-6F7) VH 1: QVQLVESGAEVKKPGESLRISCRGSGYSFTSYWISWVRQMPGKGLEWMGRIDPSDSYTKYSPSFQGHVTISADKSISTAYLQWSSLKASDTAMYYCARRDGDYFDFDYWGQGTLVTVSS VH 2: EVQLVQSGPGLVKPSETLSLTCTVSGGSIDSGYYYWGWIRQPPGKGLEWIGSIYYIGTTYYIPSLKSRVTISVDTSKNRFSLKLTSVTAADTAVYYCARQPITVAGHDAFDIWGQGTMVTVSS VL: not shown | 8.07 | 0.00284 | 352000 | 351 | 0.0455 | 130000 | 20.6 | 0.00197 | 95500 | 2.67 | 0.000369 | 138000 | 4.6 | 0.000522 | 114000
